# Test results published in the DeepSol protein solubility set.
# Assay: soluble on expression in E. coli; label from the status in PepcDB or PDB records
row,Sequence,soluble on expression in E. coli
1,NGESYNFALNSGYTKLSDNAEVKIAVDKIADLVSNMTVHLMENTEKGDIRIRDELSRKIDINPYSLMTRKTWIYNIVSNLLLYGDGNAIVLPEIKNGLISELKPLDPSLVDFDVRDDSYKIHYKNKTYNPDEVVHFAINPDSEYPFIGTGYRVALKSLVDNLNQATATKKAFMSSKFMPNLIVKVDANAAELSSEKGKNKIEDMYLQRTEEGKPWIIPADLIEIEQVKPLSLNDIAINEAVNIDKKTVAGLLGVPAFFVGVGEFDKNEFNNFINTRIMSIAMIISQTLTRDLLISPTRFFKLNPRSLYSYDITELVAAGGQMVDRIAMDRNELRDWIG,not soluble
2,NIVLTQSPKSMSVSVGERVTLSCKASENVDTYVFWFQQKPDQSPKLLLYGPSNRYTGVPDRFTGSGSTTDFTLTISSVQAEDLADYHCGQSYSYPYTFGGGTKLEIKRADAAPTVSIFPPSSEQLTSGGASVVCFLNNFYPKDINVKWKIDGSERQNGVLNSWTDQDSKDSTYSMSSTLTLTKDEYERHNSYTCEATHKTSTSPIVKSFNRNEC,soluble
3,NKMAMIDLAKLFLASKITAIEFSERICVERRRLYGVKDLSPNILNCGEELFMAAERFEPDADRANYEIDDNGLKVEVRSILEKFKLHHHHH,soluble
4,NKNAFLIVRGNLTYAHSEYLKYEDNTYDKEWWKYKIGYSPNQKWGYIAEGLFIDDAEVANSPVQFGDYKAGDIKYRDMNGDGVINSLDQVPIGHPTSPEINYGFGSTFSYKGFDINFQFHGSAQSSFWIDYDKMSPFFKDSKMSQKTNNQLVKFIANSYWSESNRNRYATWPRLSTTSVANNKELSTWFMRDGSFLRLKLVELGYTVPQKIVSKWGMSNLRLYMSSTNLFVLSKFKDWDVELAGNGLNYPLQRVFNIGVNVSF,not soluble
5,NKPSLLLYIHGFNSSPLSHKAQVMAEYCKVHRPDIKVIVPRLPSYPSQAAEFLVQLVEEYKDTHQIGLVGSSLGGYLSTWLNHQYGFKAALVNPAVKPYELLADYLGKQVNPYTQEEYFLEEKHMEELLALQVETLHSVDDLWLLQQEGDEVLDYRQAVDKYLACKQTIEKGGDHSFVNFERYPEQIIQFLN,not soluble
6,NNEIMPGKMKVKATKGEGDGGITSEGNALYNNEGGRAFMYAYVTTKPGMKYVKWEHDSGVVTVELEPPCRFVIDTPTGPQIKYLYFVKNLNNLRRGAVLGYIGATVRLQ,soluble
7,NPGENPKAQKALKQLFDGAQKDDIHLYKISGYRSYPTQVKLYNNYVKRDGKKAADKYSARPGYSEHQTGLTFDVGGVDSDKNLYASFGKTEEGRWIAKNAHNYGFIIRYPKNKESITGYQYEPWHLRYLGKKKATKVYKSGETLEEFVGLK,not soluble
8,NQVLSGVSFQLMPGEVHALMGENGAGKSTLMNILTGLHKADKGQISINGNETYFSNPKEAEQHGIAFIHQELNIWPEMTVLENLFIGKEISSKLGVLQTRKMKALAKEQFDKLSVSLSLDQEAGECSVGQQQMIEIAKALMTNAEVIIMDEPTAALTEREISKLFEVITALKKNGVSIVYISHRMEEIFAICDRITIMRDGKTVDTTNISETDFDEVVKKMVGRELTERYPKRTPSLGDKVFEVKNASVKGSFEDVSFYVRSGEIVGVSGLMGAGRTEMMRALFGVDRLDTGEIWIAGKKTAIKNPQEAVKKGLGFITENRKDEGLLLDTSIRENIALPNLSSFSPKGLIDHKREAEFVDLLIKRLTIKTASPETHARHLSGGNQQKVVIAKWIGIGPKVLILDEPTRGVDVGAKREIYTLMNELTERGVAIIMVSSELPEILGMSDRIIVVHEGRISGEIHAREATQERIMTLATGGR,not soluble
9,NRWGSPWAVKPEDKAKYDAIFDSLSPVNGFLSGDKVKPVLLNSKLPVDILGRVWELSDIDHDGMLDRDEFAVAMFLVYCALEKEPVPMSLPPALVPPSKRKTWLEI,soluble
10,NSGQSGAESDIRRKSEEIAAHSNEPSAEKPKEEKKWYDRIGIRGYTQFRYSSTVSGDKDAVSYWPDKSVGEDGSFLIRRARLVIFGDINDHLSLYIQPDFASTPSGSSTGHFAQLRDAYADIHFDKNKEFRVRVGQSKIPYSFENLQSSQNRLALDRNDAMNSCCRDERDIGAFFYWAPTHIRDRFKEVMAKNLKGSGDYGMFAFGIYNGQGANRLEGNNGVHMVTRFTYPHQFSNGQILEAGIQALRGRFVPSTGPAGGFTPVMDAPEKGFKDERVGVHAVLYPQPFGLQAEWNWGRGPQLNDGQTMLTESSLNGGYVLATYKIDGLRWGTLFPFVKWQHFKGGQKFERNAPRNHVNDLEFGLEWQVMKEIELTAVYHMMNRTNVASAPYERYKADVLRFQLQWNY,not soluble
11,NSNFINIGERTNVAGSRKFARLIREKNYEEALTIARHQVENGAQIIDINFDDALLDARSEMETFLRLIASEPEISKVPVMIDSSNFEVLKVGLKSIQGKAIVNSISLKVGEEKFIEEAKFIKNFGAGVVVMAFDEEGQAATYERKIEICKRAYTILTEKVEFPPENIIFDPNILSIATGIEEHDNYAVNYIKAVKWIKENLPYAKVSGGVSNLSFSFRGNDAIRRAMHSVFLYHAINAGMDMGIVNPAMIDLYDDIDKDLLEKVENVVLNKSSNASESLLEFAQTYKKTTETLEKH,not soluble
12,NSSKCYIQVTGMTCASCVANIERNLRREEGIYSILVALMAGKAEVRYNPAVIQPPMIAEFIRELGFGATVIENIEGR,soluble
13,NVSVLNFGNTPVSFRQDGFLNATAIASHFGKLPKDYLKSEQTQQYISALAENLSVRRKILTEANQIVIVKRGGSEQGTWLHPKLAIHFARWLNPKFAVWCDEQIEILLNGKISDGI,soluble
14,PADFNGTWEMLSNDNFEDVMKALDIDFATRKIAVHLKQTKVIVQNGDKFETKTLSTFRNYEVNFVIGEEFDEQTKGLDNRTVKTLVKWDGDKLVCVQKGEKENRGWKQWIEGDLLHLEIHCQDKVCHQVFKKKN,soluble
15,PATSRFYEQHADCLAEQYTSLKFEDVHASWRAFWPQARDRVLDVGAGSGRDAKWMAEHGCEVIAIEPAQALLRFGKSYCGDSVTWLEDGLPKLEKTINLGFRFDLILVSAVWMHLAPTHRERAFRKLANLLAPNGRLVISLRHGDFSDGRKAYPVSVEELEKFAKNRALMVRNVSLDDDQLQ,not soluble
16,PCFALTGPEAGSDAGGIPDQGVVCYGMYDGEEVLGVRVSWNKRYITLAPVATVLGLAFKLQDPDGLLGDKKDVGITCALIPADHDGVEIGERHDPLGSAFMNGPTRGEDVFIPMDWLIGG,not soluble
17,PDATSKKVVPLGVEIYEINGPFFFGVADRLKGVLDVIEETPKVFILRMRRVPVIDATGMHALWEFQESCEKRGTILLLSGVSDRLYGALNRFGFIEALGEERVFDHIDKALAYAKLLVETAEERGRES,soluble
18,PDYIYAKDTAGRFLIANEVTVADNGLESLRDLVGKTDFDLHPHEFAQAVADTERRVLETGEPIFGIEERAIVTKDRDRWLMTSKVPLRSKSGRIIGIVGISRD,not soluble
19,PEITGQVSLPPGKRTNLRKTGSERIAHGMRVKFNPLPLALLLDSSLEGEFDLVQRIIYEVDDPSLPNDEGITALHNAVCAGHTEIVKFLVQFGVNVNAADSDGWTPLHCAASCNNVQVCKFLVESGAAVFAMTYSDMQTAADKCEEMEEGYTQCSQFLYGVQEKMGIMNKGVIYALWDYEPQNDDELPMKEGDCMTIIHREDEDEIEWWWARLNDKEGYVPRNLLGLYPRIKPRQRSLA,soluble
20,PEKKKRKRGSRGGKKGRKSRIANIPNFEQSLKNLVVSEKILGYGSSGTVVFQGSFQGRPVAVKRMLIDFCDIALMEIKLLTESDDHPNVIRYYCSETTDRFLYIALELCNLNLQDLVESKNVSDENLKLQKEYNPISLLRQIASGVAHLHSLKIIHRDLKPQNILVSTSSRFTADQQTGAENLRILISDFGLCKKLDSGQSSFRTNLNNPSGTSGWRAPELLEESTKRRLTRSIDIFSMGCVFYYILSKGKHPFGDKYSRESNIIRGIFSLDEMKCLHDRSLIAEATDLISQMIDHDPLKRPTAMKVLRHPLFWPKSKKLEFLLKVSDRLEIENRDPPSALLMKFDAGSDFVIPSGDWTVKFDKTFMDNLERYRKYHSSKLMDLLRALRNKYHHFMDLPEDIAELMGPVPDGFYDYFTKRFPNLLIGVYMIVKENLSDDQILREFLYS,soluble
21,PELADPTPYDIFGIPKAGSGNPKLDKKSLKKKYHRYVKLYHPDHSDNIQIFSSEKVTNSDSKSPLLLTSSEKLHRFKVISQAYDILCDPKKKIVYDTTRQGW,not soluble
22,PELPTCLTRRLADYATEKPLVRLFFQGEEATVPFISQTSRELNMDINILLANIDRFDGVTCGVLVVELTANPLLLEAFINRCEQAGITVEVLGYVLPDGL,not soluble
23,PEMQSMIVAEINPAYRSLIADEPQIAPLLQDKRVEIVLDDGRKWLRRHPDEKFDLILMNTTWYWRAYSTNLLSAEFLKQVQSHLTPDGIVMFNTTHSPHAFATAVHSIPYAYRYGHMVVGSATPVVFPNKELLKQRLSRLIWPESGRHVFDSSTVDAAAQKVVSRMLIQMTEPSAGAEVITDDNMIVEYKYGRGI,not soluble
24,PHLAFFAFAGALGFAGWRQSKKPVQDTQIEQVEALSQAMQEEDTPLTWDDIPHVHTLSLALGYRLVHLVNKDQGAPLSQRIRGVRRNLSEQVGFLLPEVRIRDNLSLKPNQYTISLNGEVIEQGFIEPERLMAIAVGDTYGEIDGILGSDPAYQLPAVWIEHQDKAKALNMGYQVVDDGTVIATHISKIMKTNLAELFTHDDVEAMTQRLTQQAPKLAEALAAALNPAQQLKVYRQLLLDQVPLKDIRTIANTMLESSENTKDPILLAADVRCALKRTLVNLIAGQKPELNVYALSDELEQMLLTSLQQAQASGTVVLDSFPIEPNILGQFQQNLPLIRQQLKQQGLPPILLVMPQLRPLLARYARTFTQGLAVLSYNEIPENKQINVVGNLG,not soluble
25,PHSHPALTPEQKKELSDIAHRIVAPGKGILAADESTGSIAKRLQSIGTENTEENRRFYRQLLLTADDRVNPCIGGVILFHETLYQKADDGRPFPQVIKSKGGVVGIMVDKGVVPLAGTNGETTTQGLDGLSERCAQYKKDGADFAKWRCVLKIGEHTPSALAIMENANVLARYASICQQNGIVPIVEPEILPDGDHDLKRCQYVTEKVLAAVYKALSDHHIYLEGTLLKPNMVTPGHACTQKYSHEEIAMATVTALRRTVPPAVTGVTFLSGGQSEEEASINLNAINKCPLLKPWALTFSYGRALQASALKAWGGKKENLKAAQEEYVKRALANSLACQGKYTSSGQAGAAASESLFISNHAY,soluble
26,PIKVDGANINITAAIYDEIQQEMKRAKVSQALFAKVAANKSQGWLCELLRWKENPSPENRTLWENLCTIRRFLNLPQHERDVIYEEES,soluble
27,PILYLHGFRSSPDSFKARLLAQAMHQRGLAGQWQCPQLPASPRQAAELALALAREQLAGQQDPRRLTVIGSSLGGYYATWLAERLGCQAVLLNPAVQAARDLATQVGEHRMYHSDAPFHFLPEYVEELRALYADPLTHPERYFLVAATGDEVLDWREMRDRYPGCRQRIVQGGDHGLSDFPRWMPEVLEFA,not soluble
28,PKTGPTMTKELVFSSNIGQHDLDTKSKQIQQWIEKKYHVQVTIKRRKDAEQSEEETEEIFNQILQTMPDIATFSSRPKAIRGGTASMCVFRHLSKKEEK,soluble
29,PKTVQDLTSVVQTLLQQMQDKFQTISDQIIGRIDDMSSRIDDLEKNIA,soluble
